The values that follow come from the RNAGym collection of RNA variant scans (doi:10.7554/elife.80360).

The labels stand for the following.
B1: Twister Ribozyme (parent)
chain: AACACUGCCAAUGCCGGUCCCAAGCCCGGAUAAAAGUGGAGGGGGCGG

In the data set the parent is B1. The data set can be described thus: self-cleavage, relative activity (ratio to wild type); higher = more cleavage; co-transcriptional.
On to G16A G17C, for which the self-cleavage is 0.139.

C25A G48U: the self-cleavage worked out at 0.0867.

Consider G44C G45U, for which the self-cleavage worked out at 0.483.

Consider A23C A40U, for which the self-cleavage was 0.146.

With U37G G39U, the self-cleavage was 0.114.

Turning to G38C G47C, the self-cleavage stood at 0.388.

Regarding C9G U37A, the self-cleavage stood at 0.208.

With U31G U37C, the self-cleavage was determined as 0.634.

In the case of C8U G43A, the self-cleavage was 0.145.

For the variant C19A G29A, the self-cleavage is 0.27.

With A10G G39U, the self-cleavage was determined as 0.287.

In the case of C14A G42U, the self-cleavage was 0.368.

Take A10G G41A: the self-cleavage came to 0.748.

With C8G A30U, the self-cleavage worked out at 0.409.

As to G7A C21G, the self-cleavage was 0.0478.

Turning to G7U C21A, the self-cleavage turned out to be 0.0755.

For C26U A35C, the self-cleavage is 0.446.

A1U G43C: the self-cleavage was 0.0749.

Consider C3A C15U, for which the self-cleavage was 0.108.

A4G C21A: the self-cleavage is 0.0832.

For G24C G43A, the self-cleavage was determined as 0.0738.

For A40C C46G, the self-cleavage amounted to 0.218.

Turning to C5G A22C, the self-cleavage was found to be 0.571.

Consider A1C C19A, for which the self-cleavage amounted to 0.123.

Regarding A33U G41A, the self-cleavage is 0.472.

Regarding G13A C27A, the self-cleavage was 0.0875.

Regarding A1C G41A, the self-cleavage is 0.143.

For the variant A10U G41A, the self-cleavage is 0.626.

Take A22G G42A: the self-cleavage worked out at 0.0942.

As for C14U U31A, the self-cleavage worked out at 0.92.

Regarding G17U C20G, the self-cleavage amounted to 0.105.

On to U6C C27G, for which the self-cleavage turned out to be 0.0742.

As for G7C C20A, the self-cleavage was determined as 0.0744.

With C20G G44C, the self-cleavage turned out to be 0.0871.

As to U31C, the self-cleavage stood at 1.01.

Consider U31A, for which the self-cleavage stood at 0.751.

Consider C19U G24U, for which the self-cleavage is 0.0889.

Take C27A G39U: the self-cleavage was determined as 0.0773.

For C3U A40U, the self-cleavage is 0.0995.

Take A2G G17C: the self-cleavage was 0.0381.

For the variant A2G G17A, the self-cleavage is 0.113.

Turning to C9A G47C, the self-cleavage was 0.221.

With G28A G41A, the self-cleavage turned out to be 0.385.

For C25G G43C, the self-cleavage amounted to 0.124.

C5A G48A: the self-cleavage was 0.539.

For the variant A1G G13A, the self-cleavage was determined as 0.383.

For the variant C21A G28C, the self-cleavage was found to be 0.149.

Turning to C27G G43U, the self-cleavage stood at 0.0926.

With C27G G43A, the self-cleavage came out at 0.0971.

Consider A2C G41U, for which the self-cleavage was determined as 0.0822.

In the case of U6G C27A, the self-cleavage was found to be 0.0375.

Regarding C27A A40U, the self-cleavage was 0.142.

On to C15U A23C, for which the self-cleavage stood at 0.134.

Take A10C C27U: the self-cleavage came out at 0.932.

On to C20U C25U, for which the self-cleavage amounted to 0.545.

Regarding G16C G38U, the self-cleavage amounted to 0.535.

For the variant A10C G16U, the self-cleavage was found to be 0.677.

Regarding G17A C20A, the self-cleavage came to 0.0884.

Turning to G13C A33G, the self-cleavage was 0.676.

On to G13C A33U, for which the self-cleavage was 0.335.

For the variant A10U A30G, the self-cleavage came to 0.915.

Take G7A G13U: the self-cleavage worked out at 0.0584.

A11C A34U: the self-cleavage worked out at 0.785.

In the case of A4G G17U, the self-cleavage came to 0.0875.

As to U18G G43A, the self-cleavage turned out to be 0.0708.

With U31A G42C, the self-cleavage was 0.503.

Turning to U18G C46A, the self-cleavage was 0.0573.

Regarding U18A A32C, the self-cleavage worked out at 0.53.

On to C20A C27A, for which the self-cleavage was 0.0891.

Turning to C15A C20A, the self-cleavage was 0.0707.

For U18G G41U, the self-cleavage was found to be 0.0362.

Turning to C5U C27G, the self-cleavage is 0.0666.

Take U6G G7A: the self-cleavage was determined as 0.501.

Regarding C14A C26U, the self-cleavage was 0.247.

In the case of U12G A40U, the self-cleavage came to 0.279.

A1G C15A: the self-cleavage was found to be 0.265.

A1C G44A: the self-cleavage came to 0.176.

Consider A4G G36C, for which the self-cleavage is 0.182.

For the variant C9U G42A, the self-cleavage amounted to 0.153.

Consider A2U C20G, for which the self-cleavage was 0.0669.

C21G G44A: the self-cleavage was found to be 0.0938.

Regarding A33G G43C, the self-cleavage is 0.144.

For G16C A22U, the self-cleavage is 0.21.

Turning to A1G G29A, the self-cleavage turned out to be 0.437.

Turning to A32C G47U, the self-cleavage amounted to 0.783.

As to C14U G24U, the self-cleavage is 0.135.

As for C15G U18A, the self-cleavage came out at 0.04.

As to G16C G48C, the self-cleavage was 0.709.

Consider G16C G48U, for which the self-cleavage came out at 0.414.

In the case of A11C C14G, the self-cleavage is 0.164.

Take C5G G42C: the self-cleavage stood at 0.226.

For the variant C15A A30C, the self-cleavage is 0.648.

For C21G G45A, the self-cleavage is 0.114.

With A4G G42C, the self-cleavage came out at 0.186.

In the case of G13U A23U, the self-cleavage stood at 0.0818.

With A10G C27A, the self-cleavage was 0.682.

Take C8A A34U: the self-cleavage is 0.675.

For the variant A10U G48C, the self-cleavage was determined as 1.09.

Take C27U G48A: the self-cleavage was found to be 0.633.

In the case of C25G G41A, the self-cleavage was 0.146.

On to C14U A35G, for which the self-cleavage is 0.917.

For the variant G29A G43U, the self-cleavage came to 0.326.

With A2C C25A, the self-cleavage amounted to 0.0593.

G29C A40G: the self-cleavage is 0.157.

As for G17U C46A, the self-cleavage was found to be 0.274.

On to G17U C46U, for which the self-cleavage is 0.625.

As to A2C C26G, the self-cleavage came out at 0.0867.

On to C9U U18A, for which the self-cleavage worked out at 0.0726.

Regarding U6G A40C, the self-cleavage stood at 0.0854.

Take U6A G24A: the self-cleavage was found to be 0.116.

For the variant G17C G38C, the self-cleavage was determined as 0.054.

Regarding A33G G41C, the self-cleavage is 0.197.

In the case of U6C A30G, the self-cleavage is 0.477.

As for C3U C20U, the self-cleavage is 0.308.

On to C15U A40C, for which the self-cleavage stood at 0.148.

With A4U C21A, the self-cleavage turned out to be 0.0381.

Consider C20A G39U, for which the self-cleavage came to 0.0846.

In the case of U31C A35G, the self-cleavage was 0.682.

Regarding G36A G42C, the self-cleavage amounted to 0.168.

For A4U G36C, the self-cleavage stood at 0.0838.

As to C20G A32G, the self-cleavage turned out to be 0.0903.

On to G38A G48U, for which the self-cleavage was 1.1.

In the case of G17C A35C, the self-cleavage was 0.0982.

C21A C46G: the self-cleavage came out at 0.173.

Turning to C26U A32U, the self-cleavage was determined as 0.34.

With G17A G39A, the self-cleavage was 0.153.

Turning to U31C G48U, the self-cleavage amounted to 1.11.

C8G A40G: the self-cleavage stood at 0.146.

With U12G U31A, the self-cleavage was determined as 0.746.

As to G28A G47A, the self-cleavage came out at 0.545.

C19U A23C: the self-cleavage was 0.117.

Regarding G17A U18A, the self-cleavage was 0.18.

On to U12C C46A, for which the self-cleavage came out at 0.903.

Regarding A34C G44A, the self-cleavage was found to be 0.385.

Turning to U6C C26U, the self-cleavage came to 0.0774.

As for U6C A22G, the self-cleavage stood at 0.0819.

Consider C9G C19A, for which the self-cleavage was determined as 0.0927.

On to A4U C25A, for which the self-cleavage turned out to be 0.029.

Take C25U G29C: the self-cleavage is 0.635.

For C8U A34G, the self-cleavage was 0.582.

Take A11U C26U: the self-cleavage came to 0.69.

Regarding C5U G38C, the self-cleavage stood at 0.581.

On to U6G A10G, for which the self-cleavage was 0.644.

Turning to A32C G44A, the self-cleavage is 0.881.

For the variant G28C G36C, the self-cleavage stood at 0.173.

For the variant G17A G36A, the self-cleavage was determined as 0.141.

Turning to C25G G38A, the self-cleavage amounted to 0.0823.

As to C26A G28U, the self-cleavage stood at 0.114.

Take C3U U6A: the self-cleavage was determined as 0.144.

In the case of C8A G36U, the self-cleavage amounted to 0.108.

In the case of U18G C25G, the self-cleavage was found to be 0.0608.

G38C G45C: the self-cleavage is 0.473.

On to C20G G24C, for which the self-cleavage stood at 0.123.

Take A4C A32G: the self-cleavage was 0.146.

For C15A G43C, the self-cleavage is 0.17.

For A32C G39U, the self-cleavage amounted to 0.235.

C15A C26U: the self-cleavage turned out to be 0.0725.

Consider G36C U37A, for which the self-cleavage amounted to 0.107.

As to A4C G43A, the self-cleavage came out at 0.0357.

Consider U6A C14A, for which the self-cleavage is 0.866.

With C20U G47C, the self-cleavage stood at 0.165.

Turning to A10G G24A, the self-cleavage amounted to 0.178.

On to A30C A34C, for which the self-cleavage amounted to 0.0893.

As to G16C G43U, the self-cleavage is 0.11.

Turning to A32G A40G, the self-cleavage was found to be 0.147.

In the case of A11U G17A, the self-cleavage was found to be 0.497.

With C19U A33G, the self-cleavage was 0.889.
